The text below walks through data of US20230075979A1.

Assay [1] deals with human ACE2 peptidase domain (amino acids 1-615 of human ACE2 with C-terminal His-10 and Avi tags) (human) (UniProt Q9BYF1).
The target is the same in assay [2]. In words: biolayer interferometry (Octet RED384); assumed value, not measured. On the technique in general: Biolayer interferometry detects binding as a change in optical thickness at a sensor tip.

Bounds are passed on as bounds.

What is called Kd is the free concentration of one partner at which half of the binding sites on the other are occupied at equilibrium, for simple one-to-one binding. A higher Kd goes with weaker binding. A word on the koff: it is the rate constant with which the complex falls apart. Read a low koff as a long-lived complex.

UniProt Q9BYF1, sequence (Q9BYF1 18-615 limits assumed): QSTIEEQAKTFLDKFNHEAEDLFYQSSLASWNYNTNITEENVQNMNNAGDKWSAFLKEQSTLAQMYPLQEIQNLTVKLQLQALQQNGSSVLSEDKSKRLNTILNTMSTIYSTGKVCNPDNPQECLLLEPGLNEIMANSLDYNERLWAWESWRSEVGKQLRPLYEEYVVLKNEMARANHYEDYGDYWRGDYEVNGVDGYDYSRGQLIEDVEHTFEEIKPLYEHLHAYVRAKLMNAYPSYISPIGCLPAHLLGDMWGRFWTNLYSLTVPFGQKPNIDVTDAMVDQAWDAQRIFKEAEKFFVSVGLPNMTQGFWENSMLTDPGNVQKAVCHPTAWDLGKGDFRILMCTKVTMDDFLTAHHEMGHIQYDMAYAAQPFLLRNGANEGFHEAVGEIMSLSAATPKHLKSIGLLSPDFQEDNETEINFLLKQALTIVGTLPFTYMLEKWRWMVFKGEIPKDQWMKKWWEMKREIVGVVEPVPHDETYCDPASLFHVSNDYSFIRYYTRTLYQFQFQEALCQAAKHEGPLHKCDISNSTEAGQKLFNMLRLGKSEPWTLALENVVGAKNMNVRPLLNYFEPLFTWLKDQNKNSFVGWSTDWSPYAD

“RBD-foldon trimer (trimerised SARS-CoV-2 spike receptor-binding domain fused to the T4 fibritin fold (other; other documents disagree on this pair)”: the Kd in assay [1] came out at 5 pM. Moreover, in assay [2], the koff was under 1e-06 s⁻¹.
